# Measured values: patent US20240084003A1 (SIMCERE ZAIMING PHARMACEUTICAL, published 2024)
# T1: human CD22, endogenous on Raji cells (human, UniProt P20273 20-847)
# T1 construct: whole, on cells; Endogenous protein of the Raji cell line
# T1 sequence (looked up): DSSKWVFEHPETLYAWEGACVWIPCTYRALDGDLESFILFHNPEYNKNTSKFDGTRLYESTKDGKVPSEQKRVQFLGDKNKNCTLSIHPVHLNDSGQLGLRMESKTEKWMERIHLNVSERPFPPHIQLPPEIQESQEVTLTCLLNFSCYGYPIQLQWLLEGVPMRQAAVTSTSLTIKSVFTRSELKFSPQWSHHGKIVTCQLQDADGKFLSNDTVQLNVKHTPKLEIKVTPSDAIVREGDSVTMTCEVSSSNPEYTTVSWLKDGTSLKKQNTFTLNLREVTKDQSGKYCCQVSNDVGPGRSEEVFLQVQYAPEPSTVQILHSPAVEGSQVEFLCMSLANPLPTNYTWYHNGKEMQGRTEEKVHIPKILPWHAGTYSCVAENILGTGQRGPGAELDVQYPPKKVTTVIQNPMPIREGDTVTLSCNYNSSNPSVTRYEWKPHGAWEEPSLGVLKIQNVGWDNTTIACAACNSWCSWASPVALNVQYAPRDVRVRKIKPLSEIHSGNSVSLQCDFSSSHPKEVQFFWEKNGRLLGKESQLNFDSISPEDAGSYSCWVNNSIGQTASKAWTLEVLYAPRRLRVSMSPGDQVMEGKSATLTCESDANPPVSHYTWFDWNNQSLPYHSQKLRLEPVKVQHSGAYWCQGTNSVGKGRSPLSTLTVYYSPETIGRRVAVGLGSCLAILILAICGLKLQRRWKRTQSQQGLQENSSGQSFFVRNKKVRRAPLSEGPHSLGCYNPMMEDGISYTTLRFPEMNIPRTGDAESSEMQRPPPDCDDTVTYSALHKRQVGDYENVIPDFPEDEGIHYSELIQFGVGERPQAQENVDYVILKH
# T2: human CD22, full length, on CHO-K1-human CD22 2C4 cells (human, UniProt P20273 20-847)
# T2 construct: Full-length human CD22 (NCBI NP_001762.2) stably transfected into CHO-K1
# T2 sequence: T1 sequence (looked up)
# T3: murine CD22 protein (ACROBiosystems, SI2-M52Ha) (murine, UniProt P35329 22-708)
# T3 construct: extracellular domain; also called murine CD22-ECD; murine CD22-ECD-His
# T3 sequence (looked up): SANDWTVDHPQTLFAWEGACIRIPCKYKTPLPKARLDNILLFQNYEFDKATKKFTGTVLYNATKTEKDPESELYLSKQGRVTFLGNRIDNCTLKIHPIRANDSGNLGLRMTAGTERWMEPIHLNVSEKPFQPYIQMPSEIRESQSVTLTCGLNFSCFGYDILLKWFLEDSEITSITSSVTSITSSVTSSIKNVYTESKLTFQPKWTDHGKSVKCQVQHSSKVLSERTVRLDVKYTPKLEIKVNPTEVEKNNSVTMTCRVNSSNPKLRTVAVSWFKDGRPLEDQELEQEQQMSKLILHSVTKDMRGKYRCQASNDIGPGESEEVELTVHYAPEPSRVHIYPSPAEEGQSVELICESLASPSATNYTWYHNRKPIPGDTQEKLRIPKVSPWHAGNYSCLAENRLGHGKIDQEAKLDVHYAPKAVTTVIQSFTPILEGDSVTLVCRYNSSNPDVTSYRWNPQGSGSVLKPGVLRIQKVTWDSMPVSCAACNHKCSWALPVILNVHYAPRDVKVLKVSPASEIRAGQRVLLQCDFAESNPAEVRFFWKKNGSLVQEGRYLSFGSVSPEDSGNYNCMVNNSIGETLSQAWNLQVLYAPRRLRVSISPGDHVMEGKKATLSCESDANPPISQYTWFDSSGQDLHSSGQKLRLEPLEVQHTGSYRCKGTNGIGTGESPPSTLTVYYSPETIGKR
# B1: F1.17.1 human-murine chimeric antibody (antibody, human IgG1, kappa, V domains shown)
# VH: QVQLKESGPGLVAPSQSLSITCTVSGFSLSRYTVHWVRQPPGKGLEWLGMIWGGGSTDYNSALKSRLSISKDNSKSQVFLKMNSLQTDDTAMYYCARPHDFDAGGFAYWGQGTLVTVSA
# VL: QIVLTQSPAILSTSPGEKVTMTCSASSRVNYMYWYQQKPGSSPRLLIYDTSNLASGVPVRFSGSGSGTSYSLTISRMEAEDAATYYCQQWTSYPLTFGAGTKLELKR
# notes: Chimeric, human IgG1 / kappa
# B2: F1.257.3 human-murine chimeric antibody (antibody, human IgG1, kappa, V domains shown)
# VH: QVQLQQSGPELARPGASVKLSCKASGYTFTSYGISWVKQRTGQDLEWIGEIYPKLGTTYYNEKFKDKATLTTDRSSSTAYMALRSLTSEDSAVYFCACPHYYATRGGDYWGQGTTLTVSS
# VL: EIVLTQSPATLSVTPGDSVTFSCRASQSISNHLHWYQQKSHESPRLLIRYASQSISGIPSRFSGSGSGTDFTLSLSSVETEDFGVYFCQQSHSWPYTFGGGTKLEIAR
# notes: Chimeric, human IgG1 / kappa; VL tied by name
# B3: F1.161.7 human-murine chimeric antibody (antibody, human IgG1, kappa, V domains shown)
# VH: QVQLQQPGAELVKPGASVKMSCKASGYTFTSYWISWVKQRPGQGLEWIGDIYPGTGSSNYNEKFKSKATLTVDTSSSTAYMQLSSLTSEDSAVYYCARLKFEGIGYWGQGTTLTVSS
# VL: QIVLTQSPAIMSASLGEEITLTCSASSSVSYMHWFQQKSGTSPKLLIYSISNLASGVPSRFSGSGSGTFYSLTISSVEAEDAADYYCHQWSSYPWTFGGGTKLEIKR
# notes: Chimeric, human IgG1 / kappa
# B4: F1.60.9 human-murine chimeric antibody (antibody, human IgG1, kappa, V domains shown)
# VH: QVQLKESGPGLVAPSQSLSITCTVSGLSLNNYGVSWVRQPPGKGLEWLGVIWGDGSTNYHSALISRLSISKDNSKSQVFLKLNSLHTDDTATYYCAINWGDYWGQGTTLIVSS
# VL: DIKMTQSPSSMNASLGERVTITCKASQDINSYLSWFQQKPGKSPKILIYRANRLIDGVPSRFSGSGSGQDYSLTISSLEYEDMGIYYCLQYGVFPLTFGAGTKLELKR
# notes: Chimeric, human IgG1 / kappa
# B5: F1.245.2 human-murine chimeric antibody (antibody, human IgG1, kappa, V domains shown)
# VH: EVQLQQSGAELVKPGASVKLSCTGSGFNIKDYYIHWVKQRTEQGLEWMGRIDPEDGETEYAPKFQDEATITSDTSSNTAYLQLSSLTYEDTAVYYCAREAAGYFYRGSSYGYFDVWGTGTTVTVSS
# VL: DFQMTQTTSFLSASLGDRVTISCSASQDISNYLNWYQQKPDGTVKLLIYYTSSLHSGVPSRFSGSGSGTDYSLTISNLEPEDIATYYCQQYSMLPYTFGGGTKLEMER
# notes: Chimeric, human IgG1 / kappa
# B6: F1.172.13 human-murine chimeric antibody (antibody, human IgG1, kappa, V domains shown)
# VH: QVTLKESGPGILQSSQTLSLTCSFSGFSLSTSGMGVSWIRQPSGKGLEWLAHIYWDDDKRYNPSLKSRLTISKDTSRNQVFLKITSVDTADTATYYCARAPPPNWDEYYFDYWGQGTTLTVSS
# VL: DIQMTQSPASLSASVGETVTITCRASGNIHNSLAWYQQKQGKSPQLLVHNAKTLADGVPSRFSGSGSGTQYSLKINSLQPEDFGSYYCQHFWSTPPFGGGTKLEIKR
# notes: Chimeric, human IgG1 / kappa
# Target: T1, human CD22, endogenous on Raji cells
# Test: FACS, Raji cells
# Text: (§1) The required cells were scale-up cultured in a T-75 cell culture flask to the logarithmic growth phase. For the adherent cell CHO-K1, the medium was aspirated, the cells were washed 2 times with PBS buffer, and then digested with trypsin. After the digestion was terminated, the cells were washed 2 times with PBS buffer. For suspension cell Raji, the medium supernatant was directly centrifuged and discarded, and the cell pellet was washed 2 times with PBS. After counting the cells in the previous step, the cell pellet was resuspended with [PBS+2% (w/w) BSA] blocking solution to 2×10⁶ cells/ml, and added to a 96-well FACS reaction plate at 50 μl/well, and then the chimeric antibody test sample was added at 50 μl/well, and incubated on ice for 2 hours. The mixture was centrifuged and washed 3 times with PBS buffer, Alexa Flour 488-labeled secondary antibody (purchased from Invitrogen, catalog number: A-11013) was added at 50 μl/well, and incubated on ice for 1 hour. The obtained mixture was centrifuged and washed 5 times with PBS, and FACS (FACS Canto™, purchased from BD Company) was used for detection and result analysis. Data analysis was performed by software (CellQuest) to obtain the mean fluorescence density (MFI)of the cells. And then software (GraphPad Prism8) was used for analysis, data fitting, and EC50 value calculation. […] The same method was used to detect the binding of the chimeric antibodies to endogenous CD22-negative cell MoLT4 cells (purchased from ATCC, CRL-1582) and CHO-K1 cells.
EC50 [nM],Maximum mean fluorescence intensity [MFI],Binder
0.17,28500,B1
0.27,29300,B2
0.22,27900,B3
0.29,25300,B4
0.07,29900,B5
0.17,23800,B6

# Target: T2, human CD22, full length, on …
# Test: FACS, CHO-K1-human CD22 2C4 cells
# Text: as §1
EC50 [nM],Maximum mean fluorescence intensity [MFI],Binder
0.44,36900,B1
0.68,46600,B2
0.59,37100,B3
0.61,30100,B4
0.33,43300,B5
0.59,33800,B6

# Target: T3, murine CD22 protein (ACROBiosystems, …)
# Test: ELISA, coated murine CD22, 10 nM Ab
# Method: (§2) In order to detect the binding activity of CD22 human-murine chimeric antibodies to CD22 protein, the purified human CD22-ECD-His protein obtained in Example 2 was diluted with PBS to a final concentration of 2 μg/mL, and then added to 96-well ELISA plate at 100 μl/well. The plate was sealed with plastic film and incubated overnight at 4° C., the plate was washed 2 times with PBS the next day, and then a blocking solution [PBS+2% (w/w) BSA] was added for blocking at room temperature for 2 hours. […] After incubation at 37° C. for 2 hours, the plate was washed 3 times with PBS. HRP (horseradish peroxidase)-labeled secondary antibody (purchased from Sigma, catalog number: A0170) was added, and incubated at 37° C. for 2 hours, and the plate was washed 5 times with PBS. TMB substrate was added at 50 μl/well, and incubated at room temperature for 30 minutes, then a stop solution (1.0 N HCl) was added at 50 μl/well.
# (§3) In order to detect the species cross-binding activity of the chimeric antibodies, an ELISA plate was coated with commercial murine CD22 protein (ACROBiosystems, catalog number: SI2-M52Ha) and monkey CD22 protein (ACROBiosystems, catalog number: SI2-R52Ha), respectively, and the ELISA detection was performed according to the method in Example 5.1.
row,OD450 [OD450],Binder
1,0.06,B1
2,0.07,B2
3,0.06,B3
4,0.06,B4
5,0.07,B5
6,0.06,B6

# Target: T3, murine CD22 protein (ACROBiosystems, …)
# Test: ELISA, coated murine CD22, 0.1 nM Ab
# Method: as §2, §3
row,OD450 [OD450],Binder
1,0.05,B1
2,0.05,B2
3,0.05,B3
4,0.05,B4
5,0.06,B5
6,0.05,B6

# Target: T3, murine CD22 protein (ACROBiosystems, …)
# Test: ELISA, coated murine CD22, 100 nM Ab
# Method: as §2, §3
row,OD450 [OD450],Binder
1,0.07,B1
2,0.2,B2
3,0.08,B3
4,0.08,B4
5,0.09,B5
6,0.08,B6

# Target: T3, murine CD22 protein (ACROBiosystems, …)
# Test: ELISA, coated murine CD22, 0.01 nM Ab
# Method: as §2, §3
row,OD450 [OD450],Binder
1,0.05,B1
2,0.05,B2
3,0.05,B3
4,0.06,B4
5,0.06,B5
6,0.05,B6

# Target: T3, murine CD22 protein (ACROBiosystems, …)
# Test: ELISA, coated murine CD22, 0.001 nM Ab
# Method: as §2, §3
row,OD450 [OD450],Binder
1,0.05,B1
2,0.05,B2
3,0.05,B3
4,0.05,B4
5,0.06,B5
6,0.05,B6

# Target: T3, murine CD22 protein (ACROBiosystems, …)
# Test: ELISA, coated murine CD22, 0.0001 nM Ab
# Method: as §2, §3
row,OD450 [OD450],Binder
1,0.05,B1
2,0.05,B2
3,0.05,B3
4,0.06,B4
5,0.07,B5
6,0.06,B6

# Target: T3, murine CD22 protein (ACROBiosystems, …)
# Test: ELISA, coated murine CD22, 0.00001 nM Ab
# Method: as §2, §3
row,OD450 [OD450],Binder
1,0.06,B1
2,0.06,B2
3,0.06,B3
4,0.06,B4
5,0.06,B5
6,0.06,B6
